The text below walks through data of article PMC5165034 (Frontiers in Immunology, 2016).

B1: 2D1 (VHH)
VHH: EVQLVESGGGLVKPGGSLRLSCAASGFTFSDYYMSWIRQAPGKGLEWVSYISSSGSTIYYADSVRGRFTISRDNAKDSLYLQMNSLRAEDTAVYYCARRRSLTVGAPTYWGQGTLVTVSS
B2: 4D3 (VHH)
VHH: EVQLVESGGGLVKPGGSLRLSCAASGFTFSDYYMSWIRQAPGKGLEWVSYISSSGSTLYYADSVRGRFTISRDNAKDSLYLQMNSLRAEDTAVYYCARRRSLTVGAPTYWGQGTLVTVSS
B3: 2E2 (VHH)
VHH: EVQLVESGGGLVKPGGSLRLSCEASGFTFSDYYMSWIRQAPGKGLEWVSYISSSGSTIYYADSVKGRFTISRDNAKDSLYLQMNSLRAEDTAVYYCARRRSLTVGAPTYWGQGTLVTVSS
B4: 2B3 (VHH)
VHH: EVQLVESGGGLVKPGGSLRLSCAASGFTFSDYYMSWIRQAPGKGLEWVSYISSSGSIIYYADSVKGRFTISRDNAKDSLYLQMNSLRAEDTAVYYCARRRSLTVGAPTYWGQGTLVTVSS
B5: 4F9 (VHH)
VHH: EVQLVESGGGLVKPGGSLRLSCAASGFTFSDYYMSWIRQAPGKGLEWVSYISSSGSTIYYADSVKGRFTISRDNAKNSLYLQMNSLRAEDTAVYYCARDLVGATDFDYWGQGTLVTVSS
B6: 1D8 (VHH)
VHH: EVQLVESGGGLVKPGGSLRLSCAASGFTFSDYYMSWIRQAPGKGLEWVSYISSSGSTIYYADSVKGRFTISRDNAKNSLYLQMNSLRAEDTAVYYCARGPPFDYWGQGTLVTVSS
B7: 3C8 (VHH)
VHH: EVQLLESGGGLVQPGGSLRLSCAASGFTFSSYAMSWVRQAPGKGLEWVSAITGSGSSTYYADSVKGRFTISRDNSKNTLYLQMNSLRAEDTAVYYCAKDRPYGSGSYKYGMDVGGQGTTVTVSS
B8: 4G9 (VHH)
VHH: EVQLLESGGGLVQRGGSLRLSCAASGFTFSSYAMSWVRQAPGKGLEWVSAISGSGGSTHYADSVKGRFTISRDNSKNTLYLQMNSLRAEDTAVYYCAKKGDRGYFFDYWGQGTLVTVSS
B9: 3A5 (VHH)
VHH: EVQLVESGGGLVKPGGSLRLSCAASGFIFSDYYMSWIRQAPGKGLEWISYISSSGDSIYYADSVKGRFTISRDDAKNSLSLQMNSLRAEDTAVYYCARGWFGESHYSDFWGQGTLVTVSS
B10: 1B1 (VHH)
VHH: EVQLVESGGGLVKSGGSLRLSCAASGFTFSDYYMSWIRQAPGKGLEWVSYISSSGSTIYYADSVKGRFTISRDNAKNSLYLQMNSLRAEDTAVYYCARGISMARDYWGQGTLVTVSS
B11: 1D10 (VHH)
VHH: EVQLVESGGGLVKPGGSLRLSCAASGFTFSDYYMSWIRQAPGKGLEWVSYISSGGDTIYYADSVKGRFTISRDNAKNSLYLQMNSLRAEDTAVYYCARGISMTGDYWGQGTLVNVSS
B12: 1H11 (VHH)
VHH: EVQLVESGGGLVKPGGSLRLSCAASGFTFSDYYMSWIRRAPGKGLEWVSYISSSGSNIYYVDSVKGRFTISRDNAKNSLYLQMNSLRAEDTAVYYCARGIAMTGDYWGQGTQVTVTS
B13: 7H12 (VHH)
VHH: EVQLVESGGGLVKPGGSLRLSCAASGFTFSDYYMSWIRQAPGKGLEWVSYISSSGSTIYYADSVKGRFTISRDNAKNSLYLQMNSLRAEDTAVYYCARGISMVGDYWGQGTLVTVSS
B14: 1C8 (VHH)
VHH: EVQLVESGGGLVKPGGSLRLSCAASGFTFSDYYMSWIRQAPGKGLEWVSYISSSGSTIYYADSVKGRFTISRDNAKNSLYLQMNSLRAEDTAVYYCARGISMVGDNWGQGTLVTVSS
B15: 1F12 (VHH)
VHH: EVQLVESGGGLVKPGGSLRLSCAASGFTFSDYYMSWIRQAPGKGLEWVSYISSSGSNIYYADSVKGRFTISRDNAKNSLYLQMNSLRAEDTAVYYCARGIAVAEDVWGQGTTVTVSS
B16: 1H4 (VHH)
VHH: EVQLVESGGGLVKPGGSLRLSCAASGFTFSDYYMSWIRQAPGKGLEWVSYISSSGSTIYYADSVKGRFTISRDNAKNSLYLQMNSLRAEDTAVYYCARGIAMVEDSWGQGTLVTVSS
B17: 4D7 (VHH)
VHH: EVQLVEFGGGLVKPGGSLRLSCAASGFTFSDYYMSWIRQAPGKGLEWVSYISSSGSNIYYADSVKGRFTITRDNAKNSLYLQMNSLRAEDTAVYYCARGISMTGDYWGQGTQVTVSS
B18: 1C9 (VHH)
VHH: EVQLVESGGGLVKPGGSLRLSCAASGFTFSDYYMSWIRQAPGKGLEWVSYISSSGSTIYYADSVKGRFTISRDNAKNSLYLQMNSLRAEDTAVYYCAKGISTTGDYWGQGALVSVSS
B19: 1F1 (VHH)
VHH: EVQLVESGGGLVKPGGSLRLSCAASGFTFSDYYMSWIRQAPGKGLEWVSYISSSGSTIYYADSVKGRFTISRDNAKNSLYLQMNSLRAEDTAVYYCARGVKLTEDNWGQGTLVTVSS
B20: 4H7 (VHH)
VHH: EVQLVESGGGLVKPGGSLRLSCAASGFTFSDYYMSWIRQAPGKGLEWVSYISSSGSTIYYADSVKGRFTISRDNAKNSLYLQMNSLRAEDTAVYYCARGISVTGDSWGQGTLVTVSS
B21: 1A7 (VHH)
VHH: EVQLVESGGGLVKPGGSLRLSCAASGFTFSDYYMSWIRQAPGKGLEWVSYISSSGSTIYYADSVKGRFTISRDNAKNSLYLQMNSLRAEDTAVYYCARGISMTGDYWGQGTLVNVSS
B22: 4E8 (VHH)
VHH: EVQLVESGGGLVKPGGSLRLSCAASGFTFSDYYMSWIRQAPGKGLEWVSYISSSGSTIYYADSVKGRFTISRDNAKNSLYLQMNSLRAEDTAVYYCARGISLTGDYWGQGTLVTVSS
B23: 1F10 (VHH)
VHH: EVQLVESGGGLVKPGGSLRLSCAASGFTFSDYYMSWIRQAPGKGLEWVSYISSSGSTIYYADSVKGRFTISRDNAKNSLYLQMSSLRAEDTAVYYCARGISLTGTDWGQGTLVTVSS
B24: 1C4 (VHH)
VHH: EVQLVESGGGLVKPGGSLRLSCAASGFTFSDYYMSWIRQAPGKGLEWVSYISSSGSTIYYADSVKGRFTISRDNAKNSLYLQMNSLRAEDTAVYYCARGISMAGDSWGQGTLVTVSS
B25: 2B5 (VHH)
VHH: EVQLVESGGGLVKPGGSLRLSCAASGFTFSDYYMTWIRQTPGKGLEWVSYISDDNNTIYYADSVKGRFTISRDNAKNSLYLQMNSLRAEDTAVYYCARDGYFGELPGFDYWGQGTLVTVSS
B26: 6F7 (VHH)
VHH: EVQLVESGGGLVKPGGSLRLSCAASGFTFSDYYMSWIRQAPGKGLEWVSYISSSGRTIYYADSVKGRFTISRDNAKNSLYLQMNSLRAEDTAVYYCARGGIAVAGTTRHYSDYWGQGTLVTVSS
B27: 4A12 (VHH)
VHH: EVQLVESGGGLVKPGGSLRLSCAASGFTFSDYYMSWIRQAPGKGLEWVSYISSSGNTIYYADSVKGRFTISRDNAKNSLYLQMNSLRAEDTAVYYCARDRLGMVRPLHYWGQGTLVTVSS
B28: 2E6 (VHH)
VHH: EVQLVESGGGLVKPGGSLRLSCAASGFTFSDYYMSWIRQAPGKGLEWVSYISGSGNTIYYADSVKGRFTISRDNAKNSLYLQMNSLRAEDTAVYYCARDRLGMVRPLHYWGQGTLVTVSS
B29: 4F5 (VHH)
VHH: EVQLVESGGGLVKPGGSLRLSCAASGFTFSDYYMSWIRQAPGKGLEWVSYISSSGSTIYYADSVKGRFTISRDNAKNSLYLQMNSLRAEDTAVYYCARRRSLTVGAPTYWGQGTLVTVSS
B30: 2F5 (VHH)
VHH: EVQLVESGGDLVEPGGSLRLSCAASGFTFSDYYMSWIRQAPGKGLEWVSYISGSGNTIYYADSVKGRFTISRDNAKNSLYLQMNSLRAEDTAVYYCARDRLGMVRPLHYWGQGTLVTVSS
B31: 3B8 (VHH)
VHH: EVQLVESGGGLVKPGGSLRLSCAASGFTFSDYYMSWIRQAPGKGLEWVSYISGSGNTIYYADSVRGRFTISRDNAKNSLYLQMNSLRAEDTALYYCARDRAGMVRGPHYWGQGTLVTVSS
B32: 3A6 (VHH)
VHH: EVQLVESGGGLVKPGGSLRLSCAASGFTFSDYYMSWIRQAPGKGLEWVSYISGSGNTIYYADSVKGRFTISRDNAKNSLYLQMNSLRAEDTAVYYCARDRLGMDRPLHYWGQGTLVTVSS

This experiment concerns the target influenza virus X-31 hemagglutinin (HA) (Influenza A virus X-31 (H3N2; HA of …, UniProt P03437, strain).
On to B1, for which the binding result is on record as “binds”.
For B2, the binding result is on record as “binds”.
Under B3 stands “binds”; under B4, “binds”; under B5, “binds”.
Under B6 stands “binds”; under B7, “binds”; under B8, “binds”.
The result for B9 reads “binds”; that for B10, “binds”; that for B11, “binds”.
As to B12, the binding result is reported as “binds”.
As to B13, the binding result is reported as “binds”.
The result for B14 reads “binds”.
The result for B15 reads “binds”; that for B16, “binds”; that for B17, “binds”.
The result for B18 reads “binds”; that for B19, “binds”.
In the case of B20, the binding result is recorded as “binds”.
Under B21 stands “binds”; under B22, “binds”; under B23, “binds”.
B24: the binding result is given as “binds”.
The result for B25 reads “binds”; that for B26, “binds”; that for B27, “binds”.
Under B28 stands “binds”.
The result for B29 reads “binds”.
In the case of B30, the binding result is recorded as “binds”.
Under B31 stands “binds”.
The result for B32 reads “binds”.
